From publication PMC5889866

Key:
[1] = target: minicollagen peptide H-Gly-Pro-Arg-Gly-(Pro-Hyp-Gly)12-NH2; experiment: SPR; […] (BIACORE); […]; 10 mM sodium HEPES pH 7.4, 150 mM NaCl, 1 mM CaCl2, 0.005% Tween-20; 20 ul/min; 25 C; […]
[2] = target: minicollagen peptide H-Gly-Pro-Arg-Gly-(Pro-Hyp-Gly)12-NH2; experiment: SPR; minicollagen peptide amine-coupled on a CM5 chip (BIACORE); collagen anchors as analyte, eight concentrations 100 nM-300 uM; 10 mM sodium HEPES pH 7.4, 150 mM NaCl, 1 mM CaCl2, 0.005% Tween-20; 20 ul/min; 25 C; equilibrium responses fitted; apparent KD

| Substance | Kd [1] | Kd [2] |
| --- | --- | --- |
| CBD (s3) of Clostridium histolyticum class II collagenase ColH (domain or fragment) | 752 µM |  |
| CBD (s3b) of Clostridium histolyticum class I collagenase ColG (domain or fragment) |  | 45.4 µM |
| CBD-CBD (s3a-s3b) of Clostridium histolyticum class I collagenase ColG (domain or fragment) |  | 44.6 µM |
| PKD-CBD (s2b-s3) of Clostridium histolyticum class II collagenase ColH (domain or fragment) | 445 µM |  |
